Kd data for one molecule are collected here from US20090220501A1 (published 2009).

This assay addresses T1, human CD19 (human, UniProt P15391 20-556).
T1 construct: whole, on cells; also called CD19 B-cell antigen
T1 sequence (looked up): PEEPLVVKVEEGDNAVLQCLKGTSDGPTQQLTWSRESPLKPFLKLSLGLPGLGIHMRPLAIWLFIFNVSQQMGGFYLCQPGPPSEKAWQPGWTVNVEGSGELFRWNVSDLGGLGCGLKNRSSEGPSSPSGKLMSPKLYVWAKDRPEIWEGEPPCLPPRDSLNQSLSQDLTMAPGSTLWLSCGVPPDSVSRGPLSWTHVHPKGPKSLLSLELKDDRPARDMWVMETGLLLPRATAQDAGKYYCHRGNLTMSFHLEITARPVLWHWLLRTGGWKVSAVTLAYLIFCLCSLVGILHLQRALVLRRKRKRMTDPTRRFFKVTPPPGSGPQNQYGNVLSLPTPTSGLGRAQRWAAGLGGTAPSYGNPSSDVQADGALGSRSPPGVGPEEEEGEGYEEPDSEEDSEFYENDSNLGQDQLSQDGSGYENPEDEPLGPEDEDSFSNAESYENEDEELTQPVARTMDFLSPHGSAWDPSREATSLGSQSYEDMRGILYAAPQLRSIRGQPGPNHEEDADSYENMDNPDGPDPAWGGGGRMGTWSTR
As to the kind of experiment: flow cytometry on CD19-positive cells with varying antibody concentrations and a fluorescently labeled secondary antibody (Benedict method); mean of 6 experiments.

B1: humanized (chimeric) anti-CD19 IgG1 antibody of the disclosure, 4G7chim (antibody, V domains shown)
VH: QVQLQQSGPELIKPGASVKMSCKASGYTFTSYVMHWVKQKPGQGLEWIGYINPYNDGTKYNEKFKGKATLTSDKSSSTAYMELSSLTSEDSAVYYCARGTYYYGSRVFDYWGQGTTLTVTV
VL: DIVMTQAAPSIPVTPGESVSISCRSSKSLLNSNGNTYLYWFLQRPGQSPQLLIYRMSNLASGVPDRFSGSGSGTAFTLRISRVEAEDVGVYYCMQHLEYPLTFGAGTKLEIRR
notes: also called anti-CD19 antibody of the present disclosure; CD19 chimeric antibody
In the case of B1, the Kd was about 5.5 nM.
